Source: US20070105162A1, “Monovalent avidin and streptavidin compositions” (Massachusetts Institute of Technology, priority 2005, published 2007)

Experiments:
[1] = Kd of D4 by 3H-biotin binding and protein precipitation; conditions: 24 μM D4, increasing 3H-biotin (0-500 μM), >20 hr room temperature; ± s.e.m.
Method: After incubation at room temperature for 20 hr, the protein was precipitated by adding 50 μL to 200 μL 0.2 M ZnSO4 followed by 200 μL 0.2 M NaOH. The protein precipitate was pelleted by centrifugation at 16,500 g for 5 min. The biotin bound by D4 was calculated from the total ^3H-biotin added minus the ^3H-biotin in the supernatant. The Kd was obtained using a nonlinear regression analysis (one-site binding hyperbola) with SigmaPlot (Systat Software; Point Richmond, Calif.).

[2] = test system: biotinylated AP-neuroligin-1 on hippocampal neurons; experiment: AP-neuroligin-1 clustering in hippocampal neurons labeled with streptavidin; format: cell-based, rat; conditions: two hour incubation at 37° C., Alexa Fluor 568 conjugate; ± s.e.m., n=9
Method: HeLa cells were grown in Dulbecco's Modified Eagle Medium (DMEM) with 10% Fetal Calf Serum, 50 U/mL penicillin and 50 μg/mL streptomycin. HeLa stably expressing AP-CFP-TM or Ala-CFP-TM have been previously described (Howarth, M. et al., Proc. Natl. Acad. Sci. USA 102: 7583-7588, 2005). Dissociated primary neuronal cultures were prepared from Embryonic Day 18 or 19 (E18/19) rats and transfected with Lipofectamine 2000 at DIV6 as in Levinson et al. (Levinson, J. N. et al., J. Biol. Chem. 280: 17312-17319, 2005). […]
Images of HeLa cells were collected on a Zeiss Axiovert 200M inverted epifluorescence microscope using a 40× oil-immersion lens and a MicroMAX CCD camera (Roper Scientific; Tucson, Ariz.). CFP (420DF20 excitation, 450DRLP dichroic, 475DF40 emission) and Alexa568 (560DF20 excitation, 585DRLP dichroic, 605DF30 emission) images were collected and analyzed using OpenLab software (Improvision; Lexington, Mass.). Fluorescence images were background-corrected. […] Images were scaled to 16 bits and analyzed in Northern Eclipse (Empix Imaging; Ontario, Canada) with user-written software. […] Results were then calculated in terms of clusters per micrometer of dendrite. For assessment of pre-synaptic terminals, clusters were determined as before and average grey levels of clusters were compared between transfected dendrites and untransfected dendrites within the same field of view. […]

[3] = Thermostability assay of avidin tetramer (SDS-PAGE); format: physicochemical; conditions: 100° C., PBS
Method: 2.3 μM wild-type avidin or chimeric avidin in PBS is heated at the indicated temperature for 3 min in a PTC-200 PCR machine (MJ Research; Waltham, Mass.) and then immediately placed on ice (Bayer, E. A. et al. Electrophoresis 17: 1319-1324, 1996). Samples are mixed with 6×SDS-PAGE loading buffer and loaded onto a 16% polyacrylamide gel.
(§1) Methods described in the Avidin Methods section above herein are used for the following production and testing of monovalent avidin. Tests are performed to determine whether monovalent avidin will rearrange its subunit composition over time. […] Wild-type avidin and A1D3 are heated in PBS at various temperatures and tetramer disassembly is determined by SDS-PAGE.

[4] = Subunit exchange of monovalent streptavidin over time by SDS-PAGE; format: physicochemical; conditions: for A1D3 rearranged into D4: PBS
Method: Methods described in the Methods section above herein were used for the following production and testing of monovalent streptavidin. Tests were performed to determine whether monovalent streptavidin would rearrange its subunit composition over time.

[5] = Subunit exchange of monovalent avidin over time by SDS-PAGE; format: physicochemical
Method: as §1

[6] = Thermostability assay of streptavidin tetramer (SDS-PAGE); format: physicochemical; conditions: 100° C., 3 min in PBS
[7] = 37° C. one day or room temperature one week

| Kd [1] [µM] | Substance | AP-neuroligin-1 clusters per micrometer of dendrite [2] [clusters/μm] | fraction remaining tetrameric on heating [3] | A1D3 rearranged into D4 ([4]; 37° C. incubation for one day) [%] | Formation of A2D2 from subunit exchange [4, 7] | A1D3 rearranged into D4 ([4]; room temperature incubation for one week) [%] | A1D3 avidin rearranged into D4 ([5]; 37° C. for one day or room temperature for one week) | Formation of A2D2 from subunit exchange [5, 7] | fraction remaining tetrameric on heating [6] |
| --- | --- | --- | --- | --- | --- | --- | --- | --- | --- |
| 918 ± 0.0117 | D4: Streptavidin tetramer with 4 dead subunits (D: N23A, S27D, S45A, SEQ ID NO:3) [Tetramer D4] | – | – | – | – | – | – | – | – |
| – | A1D3: Monovalent streptavidin tetramer: one His6-tagged wild-type (A) subunit and three dead (D) subunits [Tetramer A1D3] | 0.087±0.021 | significant fraction | 2 | not detected | 3 | small percentage | not detected | significant fraction |
